In paper PMC2572730, “Structural Basis for the Recognition of Histone H4 by the Histone-Chaperone RbAp46” (Structure(London, England:1993), 2008):

B1: E356Q + D357N + E359Q + D360N: RbAp46 mutated in the charged PP loop (protein, UniProt Q16576 2-425, looked up, variant E356Q D357N E359Q D360N)
Histone-binding protein RBBP7: ASKEMFEDTVEERVINEEYKIWKKNTPFLYDLVMTHALQWPSLTVQWLPEVTKPEGKDYALHWLVLGTHTSDEQNHLVVARVHIPNDDAQFDASHCDSDKGEFGGFGSVTGKIECEIKINHEGEVNRARYMPQNPHIIATKTPSSDVLVFDYTKHPAKPDPSGECNPDLRLRGHQKEGYGLSWNSNLSGHLLSASDDHTVCLWDINAGPKEGKIVDAKAIFTGHSAVVEDVAWHLLHESLFGSVADDQKLMIWDTRSNTTSKPSHLVDAHTAEVNCLSFNPYSEFILATGSADKTVALWDLRNLKLKLHTFESHKDEIFQVHWSPHNETILASSGTDRRLNVWDLSKIGEEQSAQNAQNGPPELLFIHGGHTAKISDFSWNPNEPWVICSVSEDNIMQIWQMAENIYNDEESDVTTSELEGQGS
B2: L30Y: RbAp46 mutated in the hydrophobic surface of helix 1 (protein)
chain: MASKEMFEDTVEERVINEEYKIWKKNTPFYYDLVMTHALQWPSLTVQWLPEVTKPEGKDYALHWLVLGTHTSDEQNHLVVARVHIPNDDAQFDASHCDSDKGEFGGFGSVTGKIECEIKINHEGEVNRARYMPQNPHIIATKTPSSDVLVFDYTKHPAKPDPSGECNPDLRLRGHQKEGYGLSWNSNLSGHLLSASDDHTVCLWDINAGPKEGKIVDAKAIFTGHSAVVEDVAWHLLHESLFGSVADDQKLMIWDTRSNTTSKPSHLVDAHTAEVNCLSFNPYSEFILATGSADKTVALWDLRNLKLKLHTFESHKDEIFQVHWSPHNETILASSGTDRRLNVWDLSKIGEEQSAEDAEDGPPELLFIHGGHTAKISDFSWNPNEPWVICSVSEDNIMQIWQMAENIYNDE
modifications: 35S-labeled
notes: RbAp46 mutated in the hydrophobic surface of helix 1

Test system: GST-histone H4 1–48
Assay: Pull-down of 35S-labeled RbAp46 mutants with GST-histone H4 1–48
Type: binding
Conditions: autoradiogram, 300 mM NaCl, 20 mM Tris pH 8.0, 5 mM DTT, 0.1% (v/v) NP-40
Source text: Figure 2 Histone H4 Recognition by the RbAp46-Binding Pocket (A) Electrostatic surface potential of RbAp46 contoured and color coded at −91 kT (red) and +91 kT (blue). […] The histone H4 peptide is shown as a stick model. The histone H4-binding pocket in RbAp46 is mainly formed by the negatively charged PP loop (which terminates in Pro-362 and Pro-363) and a hydrophobic surface on the N-terminal α helix (helix 1). The interaction of histone H4 residues (Gln-27, Lys-31, Ile-34, Arg-35, Arg-36, Leu-37, Arg-39, and Arg-40) is shown. (B) Detailed view showing the interactions of the hydrophobic Ile-34 and Leu-37 histone H4 residues with Phe-29 and Leu-30 in helix 1 of RbAp46, as well as the positively charged Arg-36, Arg-39, and Arg-40 histone H4 residues with the backbone carbonyl groups in the PP loop and a cluster of acidic residues (Glu-356, Asp-357, and Asp-360) in RbAp46. […] In each experiment, the input lane contains 30% of the ^35S-labeled RbAp46 protein used in each of the pull-down assays. The experiments were carried out in 300 mM NaCl, 20 mM Tris (pH 8.0), 5 mM DTT, and 0.1% (v/v) NP-40.
Recombinant histone H4 and RbAp46 proteins were expressed and purified as described previously ([Verreault et al., 1998; Berger et al., 2004]). Detailed procedures for the generation of the RbAp46/histone H4 peptide and recombinant histone H4 complexes can be found in the Supplemental Data. […]

Molecule | Effect of RbAp46 mutation on interaction with histone H4
B1 | disrupt the interaction with histone H4
B2 | disrupt the interaction with histone H4
